B1: Mothers against decapentaplegic homolog 4 (Homo sapiens), Q13485 (parent)
chain: MDNMSITNTPTSNDACLSIVHSLMCHRQGGESETFAKRAIESLVKKLKEKKDELDSLITAITTNGAHPSKCVTIQRTLDGRLQVAGRKGFPHVIYARLWRWPDLHKNELKHVKYCQYAFDLKCDSVCVNPYHYERVVSPGIDLSGLTLQSNAPSSMMVKDEYVHDFEGQPSLSTEGHSIQTIQHPPSNRASTETYSTPALLAPSESNATSTANFPNIPVASTSQPASILGGSHSEGLLQIASGPQPGQQQNGFTGQPATYHHNSTTTWTGSRTAPYTPNLPHHQNGHLQHHPPMPPHPGHYWPVHNELAFQPPISNHPAPEYWCSIAYFEMDVQVGETFKVPSSCPIVTVDGYVDPSGGDRFCLGQLSNVHRTEAIERARLHIGKGVQLECKGEGDVWVRCLSDHAVFVQSYYLDREAGRAPGDAVHKIYPSAYIKVFDLRQCHRQMQQQAATAQAAAAAQAAAVAGNIPGPGSVGGIAPAISLSAAAGIGVDDLRRLCILRMSFVKGWGPDYPRQSIKETPCWIEIHLHRALQLLDEVLHTMPIADPQPLD

Variants of: B1
Conditions: with fbw1a_human BTRC

effect of a mutation on the interaction | Variant
with no effect | P102L

Variants of: B1
Conditions: with skp2_human SKP2, Q13309
Sequence of skp2_human SKP2, Q13309 (Q13309 whole entry): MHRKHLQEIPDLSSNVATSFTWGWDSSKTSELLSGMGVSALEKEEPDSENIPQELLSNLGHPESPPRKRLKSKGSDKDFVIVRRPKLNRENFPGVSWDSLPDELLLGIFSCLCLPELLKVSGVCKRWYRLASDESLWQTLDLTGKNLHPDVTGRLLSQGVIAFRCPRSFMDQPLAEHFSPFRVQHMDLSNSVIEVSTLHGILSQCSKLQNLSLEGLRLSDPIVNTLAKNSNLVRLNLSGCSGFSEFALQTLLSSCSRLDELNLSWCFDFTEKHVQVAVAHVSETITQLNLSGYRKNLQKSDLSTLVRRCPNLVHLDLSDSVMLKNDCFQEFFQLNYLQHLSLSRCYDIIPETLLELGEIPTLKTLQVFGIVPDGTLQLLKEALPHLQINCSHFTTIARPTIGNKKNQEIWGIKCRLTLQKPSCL

effect of a mutation on the interaction | Variant
disrupting interaction strength | P102L

— IntAct's records for PubMed 16865698
